B1: TBLR1-LgBiT wild type [not stated] / SETD5-SmBiT [not stated] (parent complex)
chain 1: MSISSDEVNFLVYRYLQESGFSHSAFTFGIESHISQSNINGALVPPAALISIIQKGLQYVEAEVSINEDGTLFDGRPIESLSLIDAVMPDVVQTRQQAYRDKLAQQQAAAAAAAAAAASQQGSAKNGENTANGEENGAHTIANNHTDMMEVDGDVEIPPNKAVVLRGHESEVFICAWNPVSDLLASGSGDSTARIWNLSENSTSGSTQLVLRHCIREGGQDVPSNKDVTSLDWNSEGTLLATGSYDGFARIWTKDGNLASTLGQHKGPIFALKWNKKGNFILSAGVDKTTIIWDAHTGEAKQQFPFHSAPALDVDWQSNNTFASCSTDMCIHVCKLGQDRPIKTFQGHTNEVNAIKWDPTGNLLASCSDDMTLKIWSMKQDNCVHDLQAHNKEIYTIKWSPTGPGTNNPNANLMLASASFDSTVRLWDVDRGICIHTLTKHQEPVYSVAFSPDGRYLASGSFDKCVHIWNTQTGALVHSYRGTGGIFEVCWNAAGDKVGASASDGSVCVLDLRK
chain 2: MSIAIPLGVTTSDTSYSDMAAGSDPESVEASPAVNEKSVYSTHNYGTTQRHGCRGLPYATIIPRSDLNGLPSPVEERCGDSPNSEGETVPTWCPCGLSQDGFLLNCDKCRGMSRGKVIRLHRRKQDNISGGDSSATESWDEELSPSTVLYTATQHTPTSITLTVRRTKPKKRKKSPEKGRAAPKTKKIKNSPSEAQNLDENTTEGWENRIRLWTDQYEEAFTNQYSADVQNALEQHLHSSKEFVGKPTILDTINKTELACNNTVIGSQMQLQLGRVTRVQKHRKILRAARDLALDTLIIEYRGKVMLRQQFEVNGHFFKKPYPFVLFYSKFNGVEMCVDARTFGNDARFIRRSCTPNAEVRHMIADGMIHLCIYAVSAITKDAEVTIAFDYEYSNCNYKVDCACHKGNRNCPIQKRNPNATELPLLPPPPSLPTIGAETRRRKARRKELEMEQQNEASEENNDQQSQEVPEKVTVSSDHEEVDNPEEKPEEEKEEVIDDQENLAHSRRTREDRKVEAIMHAFENLEKRKKRRDQPLEQSNSDVEITTTTSETPVGEETKTEAPESEVSNSVSNVTIPSTPQSVGVNTRRSSQAGDIAAEKLVPKPPPAKPSRPRPKSRISRYRTSSAQRLKRQKQANAQQAELSQAALEEGGSNSLVTPTEAGSLDSSGENRPLTGSDPTVVSITGSHVNRAASKYPKTKKYLVTEWLNDKAEKQECPVECPLRITTDPTVLATTLNMLPGLIHSPLICTTPKHYIRFGSPFIPERRRRPLLPDGTFSSCKKRWIKQALEEGMTQTSSVPQETRTQHLYQSNENSSSSSICKDNADLLSPLKKWKSRYLMEQNVTKLLRPLSPVTPPPPNSGSKSPQLATPGSSHPGEEECRNGYSLMFSPVTSLTTASRCNTPLQFELCHRKDLDLAKVGYLDSNTNSCADRPSLLNSGHSDLAPHPSLGPTSETGFPSRSGDGHQTLVRNSDQAFRTEFNLMYAYSPLNAMPRADGLYRGSPLVGDRKPLHLDGGYCSPAEGFSSRYEHGLMKDLSRGSLSPGGERACEGVPSAPQNPPQRKKVSLLEYRKRKQEAKENSAGGGGDSAQSKSKSAGAGQGSSNSVSDTGAHGVQGSSARTPSSPHKKFSPSHSSMSHLEAVSPSDSRGTSSSHCRPQENISSRWMVPTSVERLREGGSIPKVLRSSVRVAQKGEPSPTWESNITEKDSDPADGEGPETLSSALSKGATVYSPSRYSYQLLQCDSPRTESQSLLQQSSSPFRGHPTQSPGYSYRTTALRPGNPPSHGSSESSLSSTSYSSPAHPVSTDSLAPFTGTPGYFSSQPHSGNSTGSNLPRRSCPSSAASPTLQGPSDSPTSDSVSQSSTGTLSSTSFPQNSRSSLPSDLRTISLPSAGQSAVYQASRVSAVSNSQHYPHRGSGGVHQYRLQPLQGSGVKTQTGLS

Variants of: B1
Assay: NanoLuc complementation assay; n = 6–7 independent transfections per TBLR1 mutant; read off a plot

| Variant | ratio to parent |
| --- | --- |
| chain 1 MSISSDEVNFLVYRYLQESGFSHSAFTFGIESHISQSNINGALVPPAALISIIQKGLQYVEAEVSINEDGTLFDGRPIESLSLIDAVMPDVVQTRQQAYRDKLAQQQAAAAAAAAAAASQQGSAKNGENTANGEENGAHTIANNHTDMMEVDGDVEIPPNKAVVLRGHESEVFICAWNPVSDLLASGSGDSTARIWNLSENSTSGSTQLVLRHCIREGGQDVPSNKDVTSLDWNSEGTLLATGSYDGFARIWTKDGNLASTLGQHKGPIFALKWNKKGNFILSAGVDKTTIIWDAHTGEAKQQFPFHSAPALDVDWQSNNTFASCSTDMCIHVCKLGQDRPIKTFQGHTNEVNAIKWDPTGNLLASCSEDMTLKIWSMKQDNCVHDLQAHNKEIYTIKWSPTGPGTNNPNANLMLASASFDSTVRLWDVDRGICIHTLTKHQEPVYSVAFSPDGRYLASGSFDKCVHIWNTQTGALVHSYRGTGGIFEVCWNAAGDKVGASASDGSVCVLDLRK [chain 1 D369E] | ~0.15 |
| chain 1 MSISSDEVNFLVYRYLQESGFSHSAFTFGIESHISQSNINGALVPPAALISIIQKGLQYVEAEVSINEDGTLFDGRPIESLSLIDAVMPDVVQTRQQAYRDKLAQQQAAAAAAAAAAASQQGSAKNGENTANGEENGAHTIANNHTDMMEVDGDVEIPPNKAVVLRGHESEVFICAWNPVSDLLASGSGDSTARIWNLSENSTSGSTQLVLRHCIREGGQDVPSNKDVTSLDWNSEGTLLATGSYDGFARIWTKDGNLASTLGQHKGPIFALKWNKKGNFILSAGVDKTTIIWDAHTGEAKQQFPFHSAPALDVDWQSNNTFASCSTGMCIHVCKLGQDRPIKTFQGHTNEVNAIKWDPTGNLLASCSDDMTLKIWSMKQDNCVHDLQAHNKEIYTIKWSPTGPGTNNPNANLMLASASFDSTVRLWDVDRGICIHTLTKHQEPVYSVAFSPDGRYLASGSFDKCVHIWNTQTGALVHSYRGTGGIFEVCWNAAGDKVGASASDGSVCVLDLRK [chain 1 D328G] | ~0.6 |
| chain 1 MSISSDEVNFLVYRYLQESGFSHSAFTFGIESHISQSNINGALVPPAALISIIQKGLQYVEAEVSINEDGTLFDGRPIESLSLIDAVMPDVVQTRQQAYRDKLAQQQAAAAAAAAAAASQQGSAKNGENTANGEENGAHTIANNHTDMMEVDGDVEIPPNKAVVLRGHESEVFICAWNPVSDLLASGSGDSTARIWNLSENSTSGSTQLVLRHCIREGGQDVPSNKDVTSLDWNSEGTLLATGSYDGFARIWTKDGNLASTLGQHKGPIFALKWNKKGNFILSAGVDKTTIIWDAHTGEAKQQFPFHSAPPLDVDWQSNNTFASCSTDMCIHVCKLGQDRPIKTFQGHTNEVNAIKWDPTGNLLASCSDDMTLKIWSMKQDNCVHDLQAHNKEIYTIKWSPTGPGTNNPNANLMLASASFDSTVRLWDVDRGICIHTLTKHQEPVYSVAFSPDGRYLASGSFDKCVHIWNTQTGALVHSYRGTGGIFEVCWNAAGDKVGASASDGSVCVLDLRK [chain 1 A311P] | ~0.55 |
| chain 1 MSISSDEVNFLVYRYLQESGFSHSAFTFGIESHISQSNINGALVPPAALISIIQKGLQYVEAEVSINEDGTLFDGRPIESLSLIDAVMPDVVQTRQQAYRDKLAQQQAAAAAAAAAAASQQGSAKNGENTANGEENGAHTIANNHTDMMEVDGDVEIPPNKAVVLRGHESEVFICAWNPVSDLLASGSGDSTARIWNLSENSTSGSTQLVLRHCIREGGQDVPSNKDVTSLDWNSEGTLLATGSYDGFARIWTKDGNLASTLGQHKGPIFALKWNKKGNFILSAGVDKTTIIWDAHTGEAKQQFPFHSAPALDVDWQSNNTFASCSTDMCIHVCKLGQDRPIKTFQGHTNEVNAIKWDPTGNLLASCSDDMTLKIWSMKQDNCVHDLQAHNKEIYTIKWSPTGPGTNNPNANLMLASASFDSTVRLWDVDRGICIHTLTKHQEPVYSVAFSPDGRYLARGSFDKCVHIWNTQTGALVHSYRGTGGIFEVCWNAAGDKVGASASDGSVCVLDLRK [chain 1 S459R] | ~0.06 |

The next lines start with the values.

| ratio to parent | Variant |
| --- | --- |
| ~0.87 | chain 1 MSISSDEVNFLVYRYLQESGFSHSAFTFGIESHISQSNINGALVPPAALISIIQKGLQYVEAEVSINEDGTLFDGRPIESLSLIDAVMPDVVQTRQQAYRDKLAQQQAAAAAAAAAAASQQGSAKNGENTANGEENGAHTIANNHTDMMEVDGDVEIPPNKAVVLRGHESEVFICAWNPVSDLLASGSGDSTARIWNLSENSTSGSTQLVLRHCIREGGQDVPSNKDVTSLDWNSEGTLLATGSYDGFARIWTKDGNLASTLGQHKGPIFALKWNKKGNFILSAGVDKTTIIWDAHTGEAKQQFPFHSAPALDVDWQSNNTFASCSTDMCIHVCKLGQDRPIKTFQGHTNEVNAIKWDPTGNLLASCSDDMTLKIWSMKQDNCVHDLQAHNKEICTIKWSPTGPGTNNPNANLMLASASFDSTVRLWDVDRGICIHTLTKHQEPVYSVAFSPDGRYLASGSFDKCVHIWNTQTGALVHSYRGTGGIFEVCWNAAGDKVGASASDGSVCVLDLRK [chain 1 Y395C] |
| ~1.1 | chain 1 MSISSDEVNFLVYRYLQESGFSHSAFTFGIESHISQSNINGALVPPAALISIIQKGLQYVEAEVSINEDGTLFDGRPIESLSLIDAVMPDVVQTRQQAYRDKLAQQQAAAAAAAAAAASQQGSAKNGENTANGEENGAHTIANNHTDMMEVDGDVEIPPNKAVVLRGHESEVFICAWNPVSDLLASGSGDSTARIWNLSENSTSGSTQLVLRHCIREGGQDVPSNKDVTSLDWNSEGTLLATGSYDGFARIWTKDGNLASTLGQHKGPIFALKWNKKGNFILSAGVDKTTIIWDAHTGEAKQQFPFHSAPALDVDWQSNNTFASCSTDMCIHVCKLGQDRPIKTFQGHTNEVNAIKWDPTGNLLASCSDDMTLKIWSMKQDNCVHDLQAHNKEIYTIKWSPTGPGTNNPNANLMLASASFDSTVRLWDVDRGICIHTLTKHQEPVDSVAFSPDGRYLASGSFDKCVHIWNTQTGALVHSYRGTGGIFEVCWNAAGDKVGASASDGSVCVLDLRK [chain 1 Y446D] |
